From the nanobody polyreactivity screen of Harvey et al. (2022)

experiment: yeast display, Sf9 membrane polyspecificity reagent, FACS + sequencing; frameworks hold sequencing errors
Method in brief: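 In a synthetic yeast display library (Saccharomyces cerevisiae BJ5465), nanobody expression was induced with galactose for 36–48 hours. FACS gates were set low and high (top ~1%) using anti-HA fluorescence for expression and streptavidin fluorescence for binding of the Sf9 membrane reagent. Each polyreactivity label is drawn from the gate of origin.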

Question: Which “polyreactivity (PSR sort gate)” value does the source give for “QVQLVESGGGLVQAGGSLRLSCAASGSTFFRYAMGLYRQAPGKEREFVAAITSSGGNTYYADSVKGRFTISRDNAKNTVYLQMNSLKPEDTAVYYCAAVWYSPYVKYNYWGQGTQVTVSS” here?
Answer: low polyreactivity

Question: For “QVKLVESGGGLVQAGGSLRLICAASGMTFVIYAMGWYRQAPGKERELVARNTWSGGSTYYADSEKGRFTISRDNSKNTVYLQMNSLNPEDSAVYYCAARRFYYYTAGYDYWGQGTQVTVSS”, which “polyreactivity (PSR sort gate)” value is on record?
Answer: low polyreactivity

Question: Which “polyreactivity (PSR sort gate)” value does the source give for “QVQLVESGGGLVQAGGSLRISCAASGIIFYRNAMGWYRQAPGKERELVAVITASGGNTYYADSVKGRFTISRDNAKNTVYLQMNSLKPEDTAVYYCNRELTSPRRWHVSRAYDYWGQGTQVTVSS” here?
Answer: low polyreactivity

Question: With “QVQLVESGGGLVQAGGSLRLSCAASGFIFDPNAMGWYRQAPGRERELVAAISSSGGRTYYADSVKGRFTISRDNAKNTVYLQMNSLKPEDTAVYYCATDTSVQGQEYDYWGQGTQVTVSS” as the sequence, how does the “polyreactivity (PSR sort gate)” value read?
Answer: low polyreactivity

Question: Which “polyreactivity (PSR sort gate)” value does the source give for “QVQLVESGGGLVQAGGSLRLSCAASGSILDSNAMGWYRQAPGQERELVAAISRSGVSTHYADSVKGRFSISRDNAKNTVYLQMNSLKPEDTAVYYCARTGQSLYSRYYYWGQGTQVTVSS” here?
Answer: low polyreactivity

Question: Which “polyreactivity (PSR sort gate)” value does the source give for “QVQLVESGGGLVQAGGSLRLSCAATGFTFTLYAMGWYRQAPGKERALVAAITRLGTSTYYADSVKGRFTISRDNAKNTVYLQMNNLKPEDTAVYYCAARGGGGQRYDYWGHGTQVTVSS” here?
Answer: high polyreactivity

Question: With “QVQLVESGGGLVQAGGSLRISCAASGFIFTGTALGWYRQAPGKERELVAAITWSGGRTYYADSVKGRFTISRDNAKNTVYLQMNSLKPEDTAVYYCNVYFSIAQRYVGGLIAHDNYWGQGTQVTVSS” as the sequence, how does the “polyreactivity (PSR sort gate)” value read?
Answer: high polyreactivity

Question: With “QVQLVESGGGLVQAGGSLRLSCAASGFIFRYYALGWYRQAPGKERELVAAIDYSGGSTNYADSVKGRFTISRDNAKNTVYLQMNSLKPEDTGVYYCATVSDNRYYYWGQGTQVTVSS” as the sequence, how does the “polyreactivity (PSR sort gate)” value read?
Answer: low polyreactivity

Question: For “QFQLVESGGGLVQAGGSHRLSCAASGSIFFINAMGWYRQAPGKERELVASISQSGVSTYYADSVKGRFTISRDNAKNTVYFEMNSLKPEDTAVYYCATGPVRRARYVWSYTYYYWGQGTQVTVSS”, which “polyreactivity (PSR sort gate)” value is on record?
Answer: low polyreactivity

Question: Which “polyreactivity (PSR sort gate)” value does the source give for “QVQLQESGGGLEQAGGSLRLSCAASGYISDIGPMGWSRQAPGKEREFVATIVVGSTTNYADSVKGRFTISRDNAKNTVYLQPESGRFRGVLLRGWLLAVGKFTYWGQGTQETVSS” here?
Answer: low polyreactivity

Question: With “QVQLVESGGGLVQAGGSLRLSCAASGRIFNYNALGWYRQAPGKESELVATITYIGTGTYYADSVKGRFTISRDNAKTTVYLQMNSLKPEDTAVYYCAASYRSRVWWRFDYWGQGTQVTVSS” as the sequence, how does the “polyreactivity (PSR sort gate)” value read?
Answer: high polyreactivity

Question: For “QVQLVESGGGLVQAGGSLRLICAASGYNCKYYAMGWYRAAPGKERELVASITSGGRTNYADSVKGRFTISRDNAKNTVYLQMNSLKPEDTAVYYCASRKPWKFVRTYTYDYWGQGTQLTVSS”, which “polyreactivity (PSR sort gate)” value is on record?
Answer: high polyreactivity

Question: With “QVQLVESGGGLVQAGGSLRLSCAASGSIFYLYTMGRYRQAPGKERELVAAITNGGSTDYADSVKGRFTISRDNAKNTVYLQMNSLKPEDTAVYYCNADPRYPVDELEYWVTTPYDYWGQGTQVTVSS” as the sequence, how does the “polyreactivity (PSR sort gate)” value read?
Answer: low polyreactivity

Question: For “QVQLVESGGGLVQAGGSLRLSCAASGSTFTVNGMGWYRQAPGKERELVASITWSGGSTYYADSVKGRFTISRDNAKNTVYLQMNSLNPEDTAVYYCAADEKLYITGYDYWVQGTQVTVSS”, which “polyreactivity (PSR sort gate)” value is on record?
Answer: low polyreactivity

Question: For “QVQIVESGGGLVQAGGSLRLTCAASGSTFYDYAMGWYRQAPGKERDLVAAITSADSTNYADSVKGRFTISRDNAKNTVYLQMNSLKPEDTAVYYCGQGTQVTVSS”, which “polyreactivity (PSR sort gate)” value is on record?
Answer: low polyreactivity

Question: Which “polyreactivity (PSR sort gate)” value does the source give for “QVQLVESGGGLVQAGGSLRLSCASSGSNFGYNAMGWYRQAPGKERELVAAILSSDSRTHYADSVKGRFTISRDNAKNTVYFQRNSLKPEDTAVYYCAAVKRRPGHYLYDYWGQGTQVSVSS” here?
Answer: low polyreactivity

Question: For “QVQLVESGGGLVQAGGSLRLSSAASGSTFSLNAMGWYRQAPGKERELVASISSGDSTNYADSVKGRFTISLDNAKNTVYLQMNSLKPEDTAVYYCAADGWVLSLARGYYTYDYWGLGTQVTVSS”, which “polyreactivity (PSR sort gate)” value is on record?
Answer: low polyreactivity

Question: With “QVQLVESGGGLVQAGGSIRLSCAASVFTFRANGMGWYRKAPGKERELVATITSGGTTNYADSVKGRFTISRDNAKNTVYLQMNSLIPEDTAVYYCNAGSVSDRQMDYWGQGTQGTVSS” as the sequence, how does the “polyreactivity (PSR sort gate)” value read?
Answer: low polyreactivity

Question: Which “polyreactivity (PSR sort gate)” value does the source give for “QVQLVESGGGLVQEGGSLRLSCAASGSIFYRNAMGWYRQAPGKERELVAAISSDGSTNYADSVKGRFTISRDNAKNTVYLHMNSLKPEDTAVYYCAAPWTQILDYWGQGTQVTVSS” here?
Answer: low polyreactivity

Question: Which “polyreactivity (PSR sort gate)” value does the source give for “QVQLVESGGGLVQAGGSLRLSCADSGGTFESYAMGWYRQAPGKERELVAAITGRGGRTYYADSVKGRFTISRDNAKNTVYLQRNSLKPEDTAVYYCAARSPPRGYSRILDYWGQGTQVTVSS” here?
Answer: high polyreactivity

Question: For “QVQLVESGGGLVQAGGSLRLSCAASRIFRGYAMGWYRQAPGKERELVAAIDRGVSTYYADSVKGRFTISRDNAKNTVYLQMNSRKPEDTAVYYCAVEYWEPYDMDYWGQGTQVTVSS”, which “polyreactivity (PSR sort gate)” value is on record?
Answer: high polyreactivity

Question: Which “polyreactivity (PSR sort gate)” value does the source give for “QVQLVESGGGLVQAGGCLRLSCAASVRTFYYYAMGWYRQAPGKEMELVAAITSTGGSTYYADSVKGRFTISRDNAKNTVYLQMNSLKPEDTAVYYCNTDPYTTQWYTTWFEYWGQGTQVTVSS” here?
Answer: low polyreactivity

Question: Which “polyreactivity (PSR sort gate)” value does the source give for “QVQLVESGGGLVQAGGSLRLSCAASGSILSWYAMGWYRQAPGKERELVAAITSGASTYYADSVKGRFTISRDNAKNTVYLQMNSLKPEDTAVYYCAAYPPSQRAEYDYWGQGTQVTVSS” here?
Answer: low polyreactivity

Question: With “QVQLVESGGGLVQAGGSLRLSCAASGLIFSDYAMGWYRQAPGKERELVAAISGIGTRTSYADSVKGRFTISRDNAKNTVYLQMNSLKPEDTAVYYCAARYYGFPSTLKYDYWGQGTQVTVSS” as the sequence, how does the “polyreactivity (PSR sort gate)” value read?
Answer: high polyreactivity

Question: For “QVQLVESGGGLVQAGGSLRLSCAASGRIFLGNVMGWYRQAPGKERELVAAISSGGSTNYADSVKGRFTISRDNAKNTVYLQMNSLKPEDTAVYYCAAYFVRDWKLYYYWGQGTQVTVSS”, which “polyreactivity (PSR sort gate)” value is on record?
Answer: low polyreactivity

Question: With “QVQRVESGGGLVQAGGSLRLSCAASGSTFYFYARGWYRQAPGKERELVAVITDGGAITYYADSVKGRFTISRDNAKNTVYLQMNSLKPEDTAVYYCAASSFGWYTRYDYWGQGTQVTVSS” as the sequence, how does the “polyreactivity (PSR sort gate)” value read?
Answer: high polyreactivity

Question: Which “polyreactivity (PSR sort gate)” value does the source give for “QVQLVESGGGLVQAGGSLRLSCAASGFIFWDYAMGWYRQAPGKERELVAAISDSGGDTYYADSVKGRFTISRDNAKNTVYFQMNSLKPEDTAVYYCAADVELWVFRGQQYDYWGQGTQVTVSS” here?
Answer: low polyreactivity

Question: With “QVQLVESGGGLDHAGGRLRLSCAASGSIFYENVMGWYRQAPGKERELVAGISRSGGRTYYADSVKGSFTISRDYAKNTVYLQMNSLQPVDTAVYYCAALTPRNRYRKFDYWGQGTQVTVSS” as the sequence, how does the “polyreactivity (PSR sort gate)” value read?
Answer: high polyreactivity

Question: For “HVQLVESGGGLVQAGGSLRLSCAASGIIFGAYALGWYRQAPGKERELVAAITYSSGSTYYADSVKGRFTISRDNAKNTVYLQMNSLKPEDTAVYYCAKTNFSQSSRYNYDYWGQGTQVTVSS”, which “polyreactivity (PSR sort gate)” value is on record?
Answer: low polyreactivity

Question: For “QVQLVESGGGFVQAGGSLRVSCAASGSIFRPDAMGWYRPAPGKERELVAAITWSGGRTYYADSVKGRFTISRDNAKNTVDLQMNSLKPEDTAVYYCAARPRYYYWFKSGTRVEYDYWGQGTQVTVSS”, which “polyreactivity (PSR sort gate)” value is on record?
Answer: high polyreactivity

Question: With “QVQLVESGGGLVQAGGSLRLSCAASGSIFGYYAMGWYRQEPGKERELVAAITRSGGSTYYADSVKGRFTISRDNAKNPVYLQMNSLKPEDTAVYYCNAVRYAVRLPAFPGYDYWGQGTQVTVSS” as the sequence, how does the “polyreactivity (PSR sort gate)” value read?
Answer: high polyreactivity

Question: For “QVQLVESGGGLVQAGGSLRLSCAASGLIFTGYAMGWYRQAPGKERELVAAITSGGGTNYADSVKGRFTISRDNAKNTVYLQMNSLKPEDTAVYYCAVDFGHYYLYSITSYLWYWDGYDYWGQGTQVTVSS”, which “polyreactivity (PSR sort gate)” value is on record?
Answer: low polyreactivity

Question: For “QVQLVESGGGLVQAGGSLRLSCAASGSTLAGYAMGWYRQAPGKERELVAAITRRGGRTYYADSVKGRFTISRDNAKNTVYLQMNSLKPEDTAVYYCAAQRSVKVDYWGQGTQVTVSS”, which “polyreactivity (PSR sort gate)” value is on record?
Answer: high polyreactivity

Question: Which “polyreactivity (PSR sort gate)” value does the source give for “QVQLVETGGGLVQAGGSLRLSCAASGSIFDGYAMGWYRQAPGKERDFVASIRFSTARTYYADSVKGRFTISRDNAKNTVYLQMNSLKPEDTAVYYCNAPQGFVWRYSSWGPYDYWGQGTQVTVSS” here?
Answer: high polyreactivity

Question: Which “polyreactivity (PSR sort gate)” value does the source give for “QVQLVESGRGLVQAGGSLRLSCAASGRIFFRYAMGWYRQAPGKAMELVAALPKSGGSTYADSVKGRFTISRDNAKTTVSLQMNSLKPEDTAVDDCATETTHYRDSGYIVKYRSEYWGQGTQVTVSS” here?
Answer: low polyreactivity

Question: With “QVQLVESGGGIVQAGGILRLSCAASGRTLHYSAMVWYRQAPRIERELVAAISARGGRTYYADSVKGRYTISLDNAKNTVYLQMTSLKPEDTAVYYCAAAGYITGSDRYDYWGQGTLVTVSS” as the sequence, how does the “polyreactivity (PSR sort gate)” value read?
Answer: high polyreactivity

Question: For “QVQLVESGGGLVQAGGSLRLSCAASGFTFPEYAMGWYRQAPGKERELVAAISSGDSTNYADSVKGRLTISRDNAKNTVYLQMNILKPEDTAVDYCAADYYDYYYEYEYWGQGTQVTVSS”, which “polyreactivity (PSR sort gate)” value is on record?
Answer: low polyreactivity

Question: For “QVQLVESGGGLVQAGGSLRLSCAASGITFHRYDMVWYRQAPGKERELVADITWSGGSTYYADSVKVRFTISRDNAKNTVYLQMNSLKPEDTAVYYCAADASTYTYTPYDYWGQGTQVTVSS”, which “polyreactivity (PSR sort gate)” value is on record?
Answer: low polyreactivity

Question: Which “polyreactivity (PSR sort gate)” value does the source give for “QVQLVESGGGLVQAGGSLRLSCAASGRIGPNVMGWYRQPPGKERELVARITWRGGSTYYADSVKGRFTISRDNAKNTVYLQMNSLKPEDTAVYYCNARGHGGWGTSMYYWGQGTQVTVSS” here?
Answer: high polyreactivity

Question: With “QVQLVESGGGLVQAGGSLRLSCAASGTTFAGYAMGWYRPEPGKERELVSAISSGDSTNYADSVKGRFTISRDNAKNTVYLQMNSLKPEDTAVYYCNAEYRTRVFWWAASSYDYWGQGTQVTVSS” as the sequence, how does the “polyreactivity (PSR sort gate)” value read?
Answer: low polyreactivity

Question: For “QVQLLESGGGLVQAGGSLRLSCDASGITFGPNAMGWYRQAPGKERELVATISSSGGSTYYSDSVKGRFTISRDNAKNTVLLQMKSLKPEDTAVYYCNSGFDPYLGAYDYWGQGTQVTVSS”, which “polyreactivity (PSR sort gate)” value is on record?
Answer: low polyreactivity

Question: With “QVQLVESGGGLVQAGGSLRLSCAASGRIFWGNALGWYRQAPGKVRELVAAITRRGGTTFYADSVKGRFTISRDNAKNTVYLQKNSLKPEDTAGYYCAARRYCQYDGYDSGGQGTQVTVSS” as the sequence, how does the “polyreactivity (PSR sort gate)” value read?
Answer: high polyreactivity

Question: With “QVQLEESGGGLVQAGGSLRLSCAASGRIFATNAMGWYRPAPATERELVAAISSSGGPTYYADSVKGRFTISRDNAKNTVYLQMNSLIREATAVYYCARVPITNDQYSHYYYWGQGTQVTVSS” as the sequence, how does the “polyreactivity (PSR sort gate)” value read?
Answer: high polyreactivity
